Measured values taken from publication PMC11180644, “Discovery, characterization and mechanism of a Microbacterium esterase for key d-biotin chiral intermediate synthesis” (Bioresources and Bioprocessing, 2024).

Substrate: COC(=O)[C@@H]1[C@H](C(=O)OC)N(Cc2ccccc2)C(=O)N1Cc1ccccc1
Experiment: HPLC of released monomethyl ester; Michaelis-Menten fit (GraphPad Prism)
Type: biochemical, Microbacterium aurantiacum
Conditions: 0.2 mol/L PBS pH 8.0, 30 °C, 10 min, DMSO as substrate solvent, 0.1-12 mmol/L diester
From the text: HPLC of released monomethyl ester; Michaelis-Menten fit (GraphPad Prism) on […]01 | the Km value

B1: EstSIT01 (Microbacterium aurantiacum) (protein)
chain: MTLFDGITSRIVDTDRLTVNILERAADDPQTPPDRTVVFVHGNVSSALFWQEIMQDLPSDLRAIAVDLRGFGGSEHAPVDATRGVRDFSDDLHATLEALDIPVAHLVGWSMGGGVVMQYALDHPVLSLTLQSPVSPYGFGGTRRDGSRLTDDDAGCGGGGANPDFIQRLIDHDTSDDAQTSPRSVFRAGYVASDYTTDHEDVWVESMLTTSTADGNYPGDAVPSDNWPGFAAGRHGVLNTMAPQYFDVSGIVDLAEKPPILWIHGTADAIVSDASFYDLNYLGQLGIVPGWPGEDVAPAQEMVSQTRDVLGRYAAGGGTVTEVAVEGAGHSAHLERPAVFRHALLEIIGYVGAAADPAPPTEAIIIRSAD
notes: C-terminal 6xHis tag, pET21a, E. coli BL21(DE3), Ni-NTA purified; catalytic triad Ser110-His330-Asp268
Work on B1 yielded a Km of 147 µM and a kcat of 5.808 s⁻¹.
